Measurements reported in publication PMC4117778.

Biological target: human DNA polymerase beta (polβ) (Homo sapiens, UniProt P06746 1-335)
Assay: X-ray crystallography; gapped binary complex, no incoming nucleotide; open conformation; 2.4 Å; Crystallization conditions not in material; kinetics (turnover only, not listed): 50 mM Tris-HCl pH 7.5, 5 mM MgCl2, 100 mM KCl, 80 nM DNA, 37°C

B1: single-nucleotide gapped DNA with templating Fm7dG (crystal) (dsDNA)
DNA 1: CCGACGTCGCATCAGC
DNA 2: GCTGATGCGA
DNA 3: GTCGG
modifications: template G6 = 2'-fluoro-N7-methyl-2'-deoxyguanosine (Fm7dG); 5'-phosphate on downstream primer GTCGG
- binding result: binds
